Experiments:
[1] = target: T1, adrenomedullin (synthetic human AM)
T1 chain: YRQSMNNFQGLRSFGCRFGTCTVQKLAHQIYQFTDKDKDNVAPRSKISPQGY

[2] = target: T2, human complement factor H, P08603
T2 chain: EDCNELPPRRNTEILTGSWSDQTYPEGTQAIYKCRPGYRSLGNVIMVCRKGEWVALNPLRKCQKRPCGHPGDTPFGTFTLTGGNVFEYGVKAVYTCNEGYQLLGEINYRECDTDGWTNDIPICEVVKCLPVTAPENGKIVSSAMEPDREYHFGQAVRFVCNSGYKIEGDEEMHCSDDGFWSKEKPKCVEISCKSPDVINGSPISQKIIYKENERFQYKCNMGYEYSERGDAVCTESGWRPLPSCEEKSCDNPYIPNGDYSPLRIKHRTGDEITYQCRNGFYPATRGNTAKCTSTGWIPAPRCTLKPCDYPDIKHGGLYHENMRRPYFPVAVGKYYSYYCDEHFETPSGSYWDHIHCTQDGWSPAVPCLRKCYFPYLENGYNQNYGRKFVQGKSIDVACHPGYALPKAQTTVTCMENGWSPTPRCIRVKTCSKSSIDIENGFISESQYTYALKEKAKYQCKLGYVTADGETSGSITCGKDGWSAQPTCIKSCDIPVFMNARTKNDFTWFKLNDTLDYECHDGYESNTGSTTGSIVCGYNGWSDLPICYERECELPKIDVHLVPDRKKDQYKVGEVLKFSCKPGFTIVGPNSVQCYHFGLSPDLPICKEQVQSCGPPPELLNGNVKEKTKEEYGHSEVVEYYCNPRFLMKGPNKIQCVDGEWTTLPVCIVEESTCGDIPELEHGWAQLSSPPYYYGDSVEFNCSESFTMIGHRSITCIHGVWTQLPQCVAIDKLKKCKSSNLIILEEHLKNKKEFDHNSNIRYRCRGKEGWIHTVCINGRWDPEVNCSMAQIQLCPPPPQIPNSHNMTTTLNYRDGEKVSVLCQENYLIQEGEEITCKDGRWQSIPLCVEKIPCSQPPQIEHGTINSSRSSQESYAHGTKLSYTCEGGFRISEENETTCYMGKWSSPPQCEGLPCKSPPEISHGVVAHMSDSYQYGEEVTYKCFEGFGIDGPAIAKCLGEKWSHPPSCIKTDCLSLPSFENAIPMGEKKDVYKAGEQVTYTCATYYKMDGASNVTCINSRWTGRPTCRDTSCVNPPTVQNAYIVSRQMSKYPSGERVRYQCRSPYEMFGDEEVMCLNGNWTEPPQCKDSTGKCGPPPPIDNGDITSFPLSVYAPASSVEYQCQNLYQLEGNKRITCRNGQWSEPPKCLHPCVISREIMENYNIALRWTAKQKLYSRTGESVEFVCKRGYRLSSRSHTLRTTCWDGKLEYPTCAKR

B1: human recombinant MMP-2 (protein)
chain: YNFFPRKPKWDKNQITYRIIGYTPDLDPETVDDAFARAFQVWSDVTPLRFSRIHDGEADIMINFGRWEHGDGYPFDGKDGLLAHAFAPGTGVGGDSHFDDDELWTLGEGQVVRVKYGNADGEYCKFPFLFNGKEYNSCTDTGRSDGFLWCSTTYNFEKDGKYGFCPHEALFTMGGNAEGQPCKFPFRFQGTSYDSCTTEGRTDGYRWCGTTEDYDRDKKYGFCPETAMSTVGGNSEGAPCVFPFTFLGNKYESCTSAGRSDGKMWCATTANYDDDRKWGFCPDQGYSLFLVAAHEFGHAMGLEHSQDPGALMAPIYTYTKNFRLSQDDIKGIQELYGASPDIDLGTGPTPTLGPVTPEICKQDIVFDGIAQIRGEIFFFKDRFIWRTVTPRDKPMGPLLVATFWPELPEKIDAVYEAPQEEKAVFFAGNEYWIYSASTLERGYPKPLTSLGLPPDVQRVDAAFNWSKNKKTYIFAGDKFWRYNEVKKKMDPGFPKLIADAWNAIPDNLDAVVDLQGGGHSYFFKGAYYLKLENQSLKSVKFGSIKSDWLGC
AM fragments generated by MMP-2 digestion (mass spectrometry of HPLC peaks) [1]: These include AM(8-52), AM(11-52), AM(23-52), AM(29-52), AM(11-28), and AM(11-22)
degradation of synthetic AM (gel, HPLC, mass spectrometry) [1]: MMP-2 rapidly cleaves synthetic AM in a time-dependent manner
degradation of factor H (gel) [2]: is not a substrate for either one of the MMPs

— patent US20050261179
